Data as given in patent US20250236683A1 (published 2025).
One block for each binder: values may come before it.

Target: human PAD2 protein (UniProt Q9Y2J8 1-665)
Experiment: SPR

Sequence of human PAD2 protein (Q9Y2J8 whole entry): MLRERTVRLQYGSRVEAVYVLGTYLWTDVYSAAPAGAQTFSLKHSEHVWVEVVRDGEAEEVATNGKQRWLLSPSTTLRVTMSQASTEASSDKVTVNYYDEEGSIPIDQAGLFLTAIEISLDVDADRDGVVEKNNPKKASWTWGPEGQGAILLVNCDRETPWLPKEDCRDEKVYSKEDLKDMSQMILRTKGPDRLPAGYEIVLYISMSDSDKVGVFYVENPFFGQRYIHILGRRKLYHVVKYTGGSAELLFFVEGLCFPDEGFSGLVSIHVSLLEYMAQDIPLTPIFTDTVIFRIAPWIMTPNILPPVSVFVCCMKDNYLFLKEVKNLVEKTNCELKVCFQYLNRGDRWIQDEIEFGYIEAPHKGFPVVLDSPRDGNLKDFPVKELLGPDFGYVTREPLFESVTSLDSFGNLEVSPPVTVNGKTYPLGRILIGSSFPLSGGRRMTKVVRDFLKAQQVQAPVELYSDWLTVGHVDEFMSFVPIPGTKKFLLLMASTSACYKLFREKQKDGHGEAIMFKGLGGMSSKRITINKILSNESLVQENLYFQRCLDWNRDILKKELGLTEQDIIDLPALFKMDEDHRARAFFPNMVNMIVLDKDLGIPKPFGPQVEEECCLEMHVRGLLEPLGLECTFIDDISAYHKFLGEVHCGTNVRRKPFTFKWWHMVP

Kd: 0.9 nM
B1: CK1-10 (antibody, V domains shown)
VH: AVTLDESGGGLQTPGRALSLVCKASGFTFSDYGMGWMRQAPGKGLEWVGAISNRGSHTYYGAAVKGRATISRDNGQSTVRLQLNNLRAEDTGTYYCAKDAGTCISSYGFSCVSAASIDAWGHGTEVIVSS
VL: ALTQPSSVSANLGGTVKITCSGGSGSYGGSYYYGWYQQKAPGSAPVTLIYDNTNRPSNIPSRFSGSKSGSTATLTITGVQADDEAVYFCGSIDSISDADIFGAGTTLTVLG

Kd: 1.37 nM
B2: CK1-14 (antibody, V domains shown)
VH: AVTLDESGGGLQTPGGALSLVCKASGFTFTRYAIQWVRQAPGKGLEWVGVINSGGRTLYAPAVKGRATISRDNGQSTVRLQLNNLRAEDTAIYYCVRGGYAYGIETWGHGTEVIVSS
VL: ALTQPSSVSANPGETVKITCSGSRYDYGWYQQKSPGSAPVTLIYYNNKRPSDIPSRFSGSKSGSTHTLTITGVQADDEAVYFCGSTDTSNDIFGAGTTLTVLG

Kd: 1.68 nM
B3: PK1-16 (antibody, V domains shown)
VH: AVTLDESGGGLQTPGGGLSLVCKASGFTFRSYAMYWVRQAPGKGLEWLAGISSSGRYTGYAPAVKGRATISRDNGQSTVRLQLSNLRAEDAGTYYCAKDVYDSWTYANRIDAWGHGTEVIVSS
VL: ALTQPSSVSANPGETVKITCSGGGRRGYYGWYQQKSPGSAPVTVIYNNDERPSNIPSRFSGFKSGSTATLTITGVQAEDEAVYYCGSGDTTTDSGIFGAGTTLTVLG
